Assay results published in patent US20230374148A1, “BINDING MOLECULES THAT MULTIMERISE CD45” (UCB BIOPHARMA SRL, priority 2020, published 2023).
“And” between values parts separate entries of the source, which are not always exact repeats. Identical values can stand only once.

B1: 4133-6294 BYbe: anti-CD45 BYbe (Fab-scFv): 4133 Fab HC-G4S linker-6294 scFv heavy chain paired with 4133 light chain (antibody)
heavy: QEQLVESGGGLVQPEGSLTLTCTASGFSFSGNYYMCWVRQAPGKGLEWIGCLYTGSSGSTYYASWAKGRFTISKTSSTTVTLQMTSLTAADTATYFCARDLGYEIDGYGGLWGQGTLVTVSSGQPKAPSVFPLAPCCGDTPSSTVTLGCLVKGYLPEPVTVTWNSGTLTNGVRTFPSVRQSSGLYSLSSVVSVTSSSQPVTCNVAHPATNTKVDKTVAPSTCSKPGGGGSGGGGSEVQLVESGAELARPGASVKMSCKASGYTFTSYTMHWVKQRPGQCLEWIGYINPSSGYTEYNQKFKDKTTLTADKSSSTAYLQLSSLTSEDSAVYYCARVGDGFYPSWLAYWGQGTLVTVSSGGGGSGGGGSGGGGSGGGGSDIQMTQSPKFLLVSAGDRVTITCKASQSVRNDVAWYQQKPGQSPKLLIFYASKRYTGVPDRFTGSGYGTDFTFTISTVQAEDLAVYFCQQDYSSPTTFGCGTKLEIK
light: AQVLTQTPSPVSAVVGGTVSISCQASQSVYNNNNLSWYQQKPGQPPKLLIYDASKLASGVPSRFKGSGSGTQFTLTISGVQCDDAATYYCLGGYYSSGWYFAFGGGTKVVVKRTPVAPTVLIFPPAADQVATGTVTIVCVANKYFPDVTVTWEVDGTTQTTGIENSKTPQNSADCTYNLSSTLTLTSTQYNSHKEYTCKVTQGTTSVVQSFNRGDC

Experiments:
Assay type in all cases: cell-based
OCI-Ly3 = test: Apoptosis of cell lines: OCI-Ly3; details: OCI-Ly3, 21 hrs
Description: (§1) The following cell lines representing various leukaemia's and lymphoma's, as classified by ATCC (www.atcc.org/), were used: Jurkat—acute T-cell leukaemia; CCRF-SB—B-cell acute lymphoblastic leukaemia; MC116—B-cell undifferentiated lymphoma; Raji, Ramos—Burkitt lymphoma (rare form of B-cell non-Hodgkin lymphoma); SU-DHL-4, SU-DHL-5, SU-DHL-8, NU-DUL-1, OCI-Ly3—Diffuse large B-cell lymphoma; THP-1—acute monocytic leukaemia; and Dakiki—B cell nasopharyngeal carcinoma.
(§2) Prior to an assay being performed, 1 vial of each of the above cell lines was thawed in a 37° C. water bath and then added to 20 ml complete media (RPMI 1640+2 mM GlutaMAX+1% Pen/Strep, all previous supplied by Invitrogen, +10% Fetal Bovine Serum (FBS), Sigma Aldrich). Cells were spun (500 g, 5 min, at RT) and re-suspended in 20 ml complete media to wash and spun again. Cells were resuspended in 10 ml complete media and then counted using a ChemoMetec NucleoCounter NC-3000. 6×10^6 cells of each cell line were spun (500 g, 5 min, at RT) and re-suspended in 4.8 ml complete media. 1×10^5 cells in 80 μl were then added to each well of a Corning Costar 96-well, cell culture treated, U-shaped-bottom microplate (cat no. 07-200-95). The plate was rested in a 37° C., 5% CO2 incubator for 2 hrs
(§3) Stocks of 4133-6294 BYbe and NegCtrl BYbe at 2500 nM in complete media were prepared. In a Greiner 96-well non-binding microplate, both reagents were serially diluted in complete media 1 in 5, seven times to produce to form an 8-point dose curve. […] (final well concentrations 500-0.0064 nM) was added to the cells. Each concentration was produced in triplicate. Camptothecin (cat no. C9911-100MG, Sigma Aldrich) and Staurosporine (cat no. 56942-200UL, Sigma Aldrich) were added as positive controls of apoptosis. Both were diluted in complete media and added to the well to produce a final concentration of 5 μM. Additional positive controls included anti-thymocyte globulin (ATG, indicated by FDA for use in conditioning regimens), Rituximab (anti-CD20, indicated by FDA for Non-Hodgkin Lymphoma and Chronic Lymphocytic Leukaemia) and Campath (anti-CD52, indicated by FDA for B-cell Chronic Lymphocytic Leukaemia). Anti-thymocyte globulin, Rituximab and Campath were added to the wells to produce final concentrations of 200 μg/ml, 500 nM and 200 μg/ml, respectively. […]
(§4) Following the incubation, the plates were spun at 500 g, 5 min, RT, the buffer was aspirated with a BioTek ELx405 microplate washer, and the cells were re-suspended in FACS buffer (PBS+1% bovine serum albumin (BSA)+0.1% NaN3+2 mM EDTA, Sigma Aldrich) to wash and then re-spun and buffer was aspirated to leave the cells in 20 μl residual media. […] Cells were analysed using the Bio-Rad ZE5 Cell Analyzer. […]

Raji = test: Apoptosis of cell lines: Raji; details: 21 hrs
Description: as §1, §2, §3, §4

SU-DHL-5 = test: Apoptosis of cell lines: SU-DHL-5; details: SU-DHL-5, 21 hrs
Description: as §1, §2, §3, §4

Molecule | Campath mean (%) cell reduction (OCI-Ly3; 200 μg/ml) | Campath mean (%) cell reduction (Raji; 200 μg/ml) | Campath mean (%) cell reduction (SU-DHL-5; 200 μg/ml) | Bottom (%) level of % cell reduction (OCI-Ly3) | Top (%) level of % cell reduction (OCI-Ly3) | Bottom (%) level of % cell reduction (Raji) | Top (%) level of % cell reduction (Raji) | Bottom (%) level of % cell reduction (SU-DHL-5) | Top (%) level of % cell reduction (SU-DHL-5)
Campath: anti-CD52, clinical grade, indicated by FDA for B-cell Chronic Lymphocytic Leukaemia; positive control [reference compound] | 6.72% | 36.00% | 26.74% | – | – | – | – | – | –
B1 | – | – | – | 10.54% | 39.84% and 39.94% | 13.56% | 74.02% | 43.93% | 91.01%
